In paper PMC12047441:

Molecular target: T1, His-tagged A. vinelandii NifEN heterologously expressed in E. coli, O- and L-cluster containing (AvNifEN^Ec-L) (A. vinelandii) (UniProt P08293)
T1 sequence 1: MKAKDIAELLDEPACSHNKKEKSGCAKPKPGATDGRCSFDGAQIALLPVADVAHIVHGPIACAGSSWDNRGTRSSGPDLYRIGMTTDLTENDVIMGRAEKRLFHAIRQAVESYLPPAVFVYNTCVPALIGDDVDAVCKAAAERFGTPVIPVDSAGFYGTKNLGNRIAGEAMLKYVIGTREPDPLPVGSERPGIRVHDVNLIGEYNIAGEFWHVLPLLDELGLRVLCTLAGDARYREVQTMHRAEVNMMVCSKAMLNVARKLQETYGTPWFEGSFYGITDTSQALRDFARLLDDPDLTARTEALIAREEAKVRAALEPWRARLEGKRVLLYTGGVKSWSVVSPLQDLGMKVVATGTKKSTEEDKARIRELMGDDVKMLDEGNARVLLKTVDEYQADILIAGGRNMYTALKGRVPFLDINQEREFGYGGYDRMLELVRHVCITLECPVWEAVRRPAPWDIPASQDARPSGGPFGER
T1 sequence 2: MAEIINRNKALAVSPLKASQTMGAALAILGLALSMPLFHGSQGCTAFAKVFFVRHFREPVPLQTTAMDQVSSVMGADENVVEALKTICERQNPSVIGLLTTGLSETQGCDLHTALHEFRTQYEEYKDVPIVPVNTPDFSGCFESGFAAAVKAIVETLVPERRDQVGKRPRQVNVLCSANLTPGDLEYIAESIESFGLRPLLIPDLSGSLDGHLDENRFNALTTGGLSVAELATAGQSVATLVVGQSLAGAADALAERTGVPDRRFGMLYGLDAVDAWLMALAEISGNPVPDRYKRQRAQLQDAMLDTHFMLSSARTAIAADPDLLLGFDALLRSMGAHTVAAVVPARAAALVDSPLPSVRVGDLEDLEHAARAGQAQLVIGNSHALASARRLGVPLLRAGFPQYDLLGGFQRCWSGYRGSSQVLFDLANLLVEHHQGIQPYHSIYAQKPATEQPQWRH

B1: M. acetivorans NifB (MaNifB), radical SAM enzyme, L-cluster bound (enzyme)
chain: MPEENQPIKEKNNGPILGEELLRKISEHPCYDKNAQHKYGRIHLAVAPACNIQCNFCVREFDCVNESRPGVTSKVLTPEEALEKTKQILAEYPFIKVVAIAGPGDPLANDETFETFELIRNEFPEITLCMSTNGLMLPEKLPEILRTGVSTLTVTVNAIDPEIQAKIVDHIFYHGKVYKGVEAAKIQIKNQLDGIKAAIDAGIVVKVNTVLIPGINDKHIIEIAKKLNELGVYIMNVMPLINQGAFADLEPPTPEERKAVQEACEPYVMQMRHCRQCRADAYGLLAQDMSQMSEERRKVIKIQTKEDMEKARAVLEKNGKKEA
- L-cluster occupancy of AvNifEN^Ec-L calculated from the Fe content, after in vivo transfer of the L-cluster from NifB to NifEN in E. coli: 42.9%
- L-cluster occupancy of AvNifEN^Ec-L relative to native AvNifEN^L (intensity of the g = 1.94 EPR feature), after in vivo transfer of the L-cluster from NifB to NifEN in E. coli: 36%
